Assay results: IntAct's records for PubMed 19737519

B1: Ribosome assembly protein 4 (Saccharomyces cerevisiae), P25382 (parent)
chain: MSTLIPPPSKKQKKEAQLPREVAIIPKDLPNVSIKFQALDTGDNVGGALRVPGAISEKQLEELLNQLNGTSDDPVPYTFSCTIQGKKASDPVKTIDITDNLYSSLIKPGYNSTEDQITLLYTPRAVFKVKPVTRSSSAIAGHGSTILCSAFAPHTSSRMVTGAGDNTARIWDCDTQTPMHTLKGHYNWVLCVSWSPDGEVIATGSMDNTIRLWDPKSGQCLGDALRGHSKWITSLSWEPIHLVKPGSKPRLASSSKDGTIKIWDTVSRVCQYTMSGHTNSVSCVKWGGQGLLYSGSHDRTVRVWDINSQGRCINILKSHAHWVNHLSLSTDYALRIGAFDHTGKKPSTPEEAQKKALENYEKICKKNGNSEEMMVTASDDYTMFLWNPLKSTKPIARMTGHQKLVNHVAFSPDGRYIVSASFDNSIKLWDGRDGKFISTFRGHVASVYQVAWSSDCRLLVSCSKDTTLKVWDVRTRKLSVDLPGHKDEVYTVDWSVDGKRVCSGGKDKMVRLWTH

Variants of: B1
Settings: with mdn1_yeast MDN1, Q12019
Chain of mdn1_yeast MDN1, Q12019 (Q12019 whole entry): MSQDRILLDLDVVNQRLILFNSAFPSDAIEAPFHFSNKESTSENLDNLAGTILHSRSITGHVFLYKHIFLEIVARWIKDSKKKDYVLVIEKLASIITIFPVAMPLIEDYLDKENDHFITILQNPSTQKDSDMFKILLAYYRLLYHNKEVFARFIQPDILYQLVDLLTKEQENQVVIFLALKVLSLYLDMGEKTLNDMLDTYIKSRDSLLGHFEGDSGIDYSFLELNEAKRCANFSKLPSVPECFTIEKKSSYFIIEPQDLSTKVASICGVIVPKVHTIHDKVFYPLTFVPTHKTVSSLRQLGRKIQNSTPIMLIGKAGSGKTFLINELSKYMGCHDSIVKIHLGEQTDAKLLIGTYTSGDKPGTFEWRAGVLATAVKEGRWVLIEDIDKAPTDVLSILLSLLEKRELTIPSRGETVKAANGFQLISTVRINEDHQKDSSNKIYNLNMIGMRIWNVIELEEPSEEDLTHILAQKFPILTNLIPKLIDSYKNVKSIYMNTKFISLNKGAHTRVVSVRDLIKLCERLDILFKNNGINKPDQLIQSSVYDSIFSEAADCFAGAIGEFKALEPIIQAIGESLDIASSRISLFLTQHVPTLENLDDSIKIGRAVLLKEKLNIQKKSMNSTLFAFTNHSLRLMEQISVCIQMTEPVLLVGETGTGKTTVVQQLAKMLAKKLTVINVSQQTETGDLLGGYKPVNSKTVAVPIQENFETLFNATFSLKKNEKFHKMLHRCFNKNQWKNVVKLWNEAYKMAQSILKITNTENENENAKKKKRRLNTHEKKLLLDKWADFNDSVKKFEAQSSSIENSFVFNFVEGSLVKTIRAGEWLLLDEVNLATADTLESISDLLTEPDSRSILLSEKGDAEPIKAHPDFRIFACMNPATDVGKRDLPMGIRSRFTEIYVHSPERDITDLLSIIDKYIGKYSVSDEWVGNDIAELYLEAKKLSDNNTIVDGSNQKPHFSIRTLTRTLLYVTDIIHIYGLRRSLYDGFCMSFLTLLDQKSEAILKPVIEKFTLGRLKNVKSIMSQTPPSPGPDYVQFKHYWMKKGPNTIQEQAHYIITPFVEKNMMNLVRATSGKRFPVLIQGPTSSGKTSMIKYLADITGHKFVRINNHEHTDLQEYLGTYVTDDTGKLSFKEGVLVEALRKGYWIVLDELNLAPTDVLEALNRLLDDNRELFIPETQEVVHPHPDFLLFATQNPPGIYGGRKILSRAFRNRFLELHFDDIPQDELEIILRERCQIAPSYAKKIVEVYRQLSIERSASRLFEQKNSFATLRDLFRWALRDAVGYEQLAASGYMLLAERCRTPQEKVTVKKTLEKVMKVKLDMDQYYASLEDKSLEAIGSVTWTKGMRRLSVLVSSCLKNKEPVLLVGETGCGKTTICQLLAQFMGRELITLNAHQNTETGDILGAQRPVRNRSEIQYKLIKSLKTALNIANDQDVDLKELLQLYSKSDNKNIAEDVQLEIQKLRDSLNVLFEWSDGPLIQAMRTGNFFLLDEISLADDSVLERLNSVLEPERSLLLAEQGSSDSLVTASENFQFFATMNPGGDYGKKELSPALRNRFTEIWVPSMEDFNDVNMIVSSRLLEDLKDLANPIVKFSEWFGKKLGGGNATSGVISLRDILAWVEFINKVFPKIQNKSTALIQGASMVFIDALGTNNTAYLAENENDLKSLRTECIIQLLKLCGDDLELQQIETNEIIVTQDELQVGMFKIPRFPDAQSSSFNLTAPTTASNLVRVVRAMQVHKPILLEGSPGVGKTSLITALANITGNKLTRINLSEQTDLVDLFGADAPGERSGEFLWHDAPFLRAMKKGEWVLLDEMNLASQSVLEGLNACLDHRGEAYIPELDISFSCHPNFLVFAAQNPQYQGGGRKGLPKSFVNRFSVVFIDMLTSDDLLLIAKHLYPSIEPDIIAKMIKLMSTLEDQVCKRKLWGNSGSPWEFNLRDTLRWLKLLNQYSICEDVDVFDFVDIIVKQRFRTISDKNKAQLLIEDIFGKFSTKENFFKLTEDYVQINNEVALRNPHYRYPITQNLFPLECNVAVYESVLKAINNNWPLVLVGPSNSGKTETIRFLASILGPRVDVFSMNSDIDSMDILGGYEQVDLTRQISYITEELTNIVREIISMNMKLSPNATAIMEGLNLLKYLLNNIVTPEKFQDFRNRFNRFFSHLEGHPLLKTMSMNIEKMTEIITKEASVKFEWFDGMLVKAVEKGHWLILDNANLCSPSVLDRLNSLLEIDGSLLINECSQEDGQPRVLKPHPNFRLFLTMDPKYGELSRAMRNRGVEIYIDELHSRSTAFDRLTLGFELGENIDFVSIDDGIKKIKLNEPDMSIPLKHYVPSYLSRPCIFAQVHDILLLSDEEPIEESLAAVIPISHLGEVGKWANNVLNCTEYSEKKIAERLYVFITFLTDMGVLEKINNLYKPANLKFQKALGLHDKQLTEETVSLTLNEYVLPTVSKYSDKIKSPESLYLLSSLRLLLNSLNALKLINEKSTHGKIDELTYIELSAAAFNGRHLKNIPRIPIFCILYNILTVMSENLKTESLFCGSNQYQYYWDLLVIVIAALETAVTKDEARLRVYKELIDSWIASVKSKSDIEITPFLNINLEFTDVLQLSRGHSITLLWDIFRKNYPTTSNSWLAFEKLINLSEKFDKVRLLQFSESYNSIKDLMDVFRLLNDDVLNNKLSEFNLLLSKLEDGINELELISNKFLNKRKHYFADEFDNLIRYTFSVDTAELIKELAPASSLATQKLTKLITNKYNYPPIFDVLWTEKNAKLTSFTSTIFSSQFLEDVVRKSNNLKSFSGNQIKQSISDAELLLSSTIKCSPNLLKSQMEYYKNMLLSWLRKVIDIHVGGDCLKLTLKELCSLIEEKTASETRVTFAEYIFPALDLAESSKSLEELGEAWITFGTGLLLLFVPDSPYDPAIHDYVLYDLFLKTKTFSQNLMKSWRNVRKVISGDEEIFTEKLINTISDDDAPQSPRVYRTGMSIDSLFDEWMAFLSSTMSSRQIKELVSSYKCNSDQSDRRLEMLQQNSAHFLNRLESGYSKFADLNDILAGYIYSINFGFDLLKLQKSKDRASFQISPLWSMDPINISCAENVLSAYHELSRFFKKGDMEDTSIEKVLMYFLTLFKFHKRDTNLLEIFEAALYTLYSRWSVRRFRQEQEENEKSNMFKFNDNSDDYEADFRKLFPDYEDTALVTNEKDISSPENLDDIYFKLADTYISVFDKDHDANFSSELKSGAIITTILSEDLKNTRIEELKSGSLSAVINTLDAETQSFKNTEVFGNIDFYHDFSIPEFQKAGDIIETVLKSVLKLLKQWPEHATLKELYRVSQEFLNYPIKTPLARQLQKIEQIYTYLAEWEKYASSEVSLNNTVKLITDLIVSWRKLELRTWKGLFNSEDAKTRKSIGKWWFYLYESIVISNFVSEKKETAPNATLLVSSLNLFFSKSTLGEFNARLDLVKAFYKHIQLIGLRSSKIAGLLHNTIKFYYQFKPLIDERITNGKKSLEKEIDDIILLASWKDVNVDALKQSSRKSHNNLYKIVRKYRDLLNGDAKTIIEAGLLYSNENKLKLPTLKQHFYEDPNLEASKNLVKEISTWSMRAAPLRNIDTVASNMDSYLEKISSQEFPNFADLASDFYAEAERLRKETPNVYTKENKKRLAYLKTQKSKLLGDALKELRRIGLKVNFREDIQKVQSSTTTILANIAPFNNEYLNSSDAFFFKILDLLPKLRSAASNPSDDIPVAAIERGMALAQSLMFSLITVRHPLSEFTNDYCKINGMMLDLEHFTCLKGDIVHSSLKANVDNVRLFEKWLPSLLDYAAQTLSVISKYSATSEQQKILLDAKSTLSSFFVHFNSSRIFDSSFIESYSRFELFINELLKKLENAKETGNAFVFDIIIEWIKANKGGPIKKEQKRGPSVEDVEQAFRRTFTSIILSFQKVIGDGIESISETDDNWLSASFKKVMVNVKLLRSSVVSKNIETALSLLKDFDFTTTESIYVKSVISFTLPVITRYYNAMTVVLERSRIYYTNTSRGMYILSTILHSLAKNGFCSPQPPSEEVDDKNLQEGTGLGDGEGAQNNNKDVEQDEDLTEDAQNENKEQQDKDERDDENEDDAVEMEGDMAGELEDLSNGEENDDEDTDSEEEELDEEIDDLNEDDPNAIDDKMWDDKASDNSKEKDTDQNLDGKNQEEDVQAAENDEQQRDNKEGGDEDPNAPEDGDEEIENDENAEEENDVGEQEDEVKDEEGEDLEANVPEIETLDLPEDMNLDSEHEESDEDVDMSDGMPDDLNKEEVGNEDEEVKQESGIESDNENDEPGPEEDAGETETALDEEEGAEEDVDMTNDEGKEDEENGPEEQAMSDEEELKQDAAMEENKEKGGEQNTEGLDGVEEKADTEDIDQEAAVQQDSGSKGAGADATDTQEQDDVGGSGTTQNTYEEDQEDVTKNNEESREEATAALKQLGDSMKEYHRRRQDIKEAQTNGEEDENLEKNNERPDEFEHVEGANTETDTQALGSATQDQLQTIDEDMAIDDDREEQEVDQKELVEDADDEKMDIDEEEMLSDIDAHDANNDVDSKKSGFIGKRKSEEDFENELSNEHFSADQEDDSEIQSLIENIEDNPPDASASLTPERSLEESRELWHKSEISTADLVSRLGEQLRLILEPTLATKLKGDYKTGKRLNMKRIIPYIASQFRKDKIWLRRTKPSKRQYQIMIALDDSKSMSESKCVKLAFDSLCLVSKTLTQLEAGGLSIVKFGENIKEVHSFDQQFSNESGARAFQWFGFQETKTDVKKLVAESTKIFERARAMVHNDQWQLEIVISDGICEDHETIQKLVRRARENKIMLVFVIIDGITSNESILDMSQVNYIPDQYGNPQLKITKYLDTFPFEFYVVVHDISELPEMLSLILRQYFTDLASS

Variant	effect of a mutation on the interaction
MSTLIPPPSKKQKKEAQLPREVAIIPKDLPNVSIKFQALDTGDNVGGALRVPGAISEKQLEELLNQLNGTSDDPVPYTFSCTIQGKKASDPVKTIDITDNLYSSLIKPGYNSTADQITLLYTPRAVFKVKPVTRSSSAIAGHGSTILCSAFAPHTSSRMVTGAGDNTARIWDCDTQTPMHTLKGHYNWVLCVSWSPDGEVIATGSMDNTIRLWDPKSGQCLGDALRGHSKWITSLSWEPIHLVKPGSKPRLASSSKDGTIKIWDTVSRVCQYTMSGHTNSVSCVKWGGQGLLYSGSHDRTVRVWDINSQGRCINILKSHAHWVNHLSLSTDYALRIGAFDHTGKKPSTPEEAQKKALENYEKICKKNGNSEEMMVTASDDYTMFLWNPLKSTKPIARMTGHQKLVNHVAFSPDGRYIVSASFDNSIKLWDGRDGKFISTFRGHVASVYQVAWSSDCRLLVSCSKDTTLKVWDVRTRKLSVDLPGHKDEVYTVDWSVDGKRVCSGGKDKMVRLWTH [E114A]	decreasing interaction
MSTLIPPPSKKQKKEAQLPREVAIIPKDLPNVSIKFQALDTGDNVGGALRVPGAISEKQLEELLNQLNGTSDDPVPYTFSCTIQGKKASDPVKTIDITDNLYSSLIKPGYNSTDDQITLLYTPRAVFKVKPVTRSSSAIAGHGSTILCSAFAPHTSSRMVTGAGDNTARIWDCDTQTPMHTLKGHYNWVLCVSWSPDGEVIATGSMDNTIRLWDPKSGQCLGDALRGHSKWITSLSWEPIHLVKPGSKPRLASSSKDGTIKIWDTVSRVCQYTMSGHTNSVSCVKWGGQGLLYSGSHDRTVRVWDINSQGRCINILKSHAHWVNHLSLSTDYALRIGAFDHTGKKPSTPEEAQKKALENYEKICKKNGNSEEMMVTASDDYTMFLWNPLKSTKPIARMTGHQKLVNHVAFSPDGRYIVSASFDNSIKLWDGRDGKFISTFRGHVASVYQVAWSSDCRLLVSCSKDTTLKVWDVRTRKLSVDLPGHKDEVYTVDWSVDGKRVCSGGKDKMVRLWTH [E114D]	decreasing interaction
